# Experimental data published in patent US8951758B2, “GH61 glycoside hydrolase protein variants and cofactors that enhance GH61 activity” (Codexis, Inc., priority 2011, dated 2015).
# B1: GH61a: Wild-type M. thermophila C1 GH61a polypeptide (SEQ ID NO:2) (protein, listed as Myceliophthora thermophila)
# chain: MSKASALLAGLTGAALVAAHGHVSHIVVNGVYYRNYDPTTDWYQPNPPTVIGWTAADQDNGFVEPNSFGTPDIICHKSATPGGGHATVAAGDKINIVWTPEWPESHIGPVIDYLAACNGDCETVDKSSLRWFKIDGAGYDKAAGRWAADALRANGNSWLVQIPSDLKAGNYVLRHEIIALHGAQSPNGAQAYPQCINLRVTGGGSNLPSGVAGTSLYKATDPGILFNPYVSSPDYTVPGPALIAGAASSIAQSTSVATATGTATVPGGGGANPTATTTAATSAAPSTTLRTTTTSAAQTTAPPSGDVQTKYGQCGGNGWTGPTVCAPGSSCSVLNEWYSQCL
# B2: E104H/K167A (protein)
# chain: MSKASALLAGLTGAALVAAHGHVSHIVVNGVYYRNYDPTTDWYQPNPPTVIGWTAADQDNGFVEPNSFGTPDIICHKSATPGGGHATVAAGDKINIVWTPEWPHSHIGPVIDYLAACNGDCETVDKSSLRWFKIDGAGYDKAAGRWAADALRANGNSWLVQIPSDLAAGNYVLRHEIIALHGAQSPNGAQAYPQCINLRVTGGGSNLPSGVAGTSLYKATDPGILFNPYVSSPDYTVPGPALIAGAASSIAQSTSVATATGTATVPGGGGANPTATTTAATSAAPSTTLRTTTTSAAQTTAPPSGDVQTKYGQCGGNGWTGPTVCAPGSSCSVLNEWYSQCL
# B3: CBH1a: wild-type M. thermophila CBH1a (SEQ ID NO:128) (protein, listed as Myceliophthora thermophila)
# chain: MYAKFATLAALVAGAAAQNACTLTAENHPSLTYSKCTSGGSCTSVQGSITIDANWRWTHRTDSATNCYEGNKWDTSWCSDGPSCASKCCIDGADYSSTYGITTSGNSLNLKFVTKGQYSTNIGSRTYLMESDTKYQMFQLLGNEFTFDVDVSNLGCGLNGALYFVSMDADGGMSKYSGNKAGAKYGTGYCDSQCPRDLKFINGEANVENWQSSTNDANAGTGKYGSCCSEMDVWEANNMAAAFTPHPCTVIGQSRCEGDSCGGTYSTDRYAGICDPDGCDFNSYRQGNKTFYGKGMTVDTTKKITVVTQFLKNSAGELSEIKRFYVQNGKVIPNSESTIPGVEGNSITQDWCDRQKAAFGDVTDFQDKGGMVQMGKALAGPMVLVMSIWDDHAVNMLWLDSTWPIDGAGKPGAERGACPTTSGVPAEVEAEAPNSNVIFSNIRFGPIGSTVSGLPDGGSGNPNPPVSSSTPVPSSSTTSSGSSGPTGGTGVAKHYEQCGGIGFTGPTQCESPYTCTKLNDWYSQCL
# B4: Xyl3: wild-type M. thermophila xylanase (SEQ ID NO:149) (protein, listed as Myceliophthora thermophila)
# chain: MHSKAFLAALLAPAVSGQLNDLAVRAGLKYFGTALSESVINSDTRYAAILSDKSMFGQLVPENGMKWDATEPSRGQFNYASGDITANTAKKNGQGMRCHTMVWYSQLPSWVSSGSWTRDSLTSVIETHMNNVMGHYKGQCYAWDVINEAINDDGNSWRDNVFLRTFGTDYFALSFNLAKKADPDTKLYYNDYNLEYNQAKTDRAVELVKMVQAAGAPIDGVGFQGHLIVGSTPTRSQLATALQRFTALGLEVAYTELDIRHSSLPASSSALATQGNDFANVVGSCLDTAGCVGVTVWGFTDAHSWIPNTFPGQGDALIYDSNYNKKPAWTSISSVLAAKATGAPPASSSTTLVTITTPPPASTTASSSSSATPTSVPTQTRWGQCGGIGWTGPTQCESPWTCQKLNDWYWQCL
# How the values were obtained:
# [1] = tested on: M. thermophila CF-416 whole broth cellulases; conditions: 87g/kg glucan, 0.81% enzyme load, pH 5.0, 55° C., 50 μM CuSO4, 72 hours
# [2] = tested on: acid-pretreated corn stover; test: Shake flask saccharification with CF-416 whole broth enzymes with 0 or 50 μM CuSO4 at pH 5.0 or pH 6.0 (FIG. 4); assay type: biochemical; conditions: 50 μM vs 0 CuSO4; for increase in glucose yields: CF-416 whole broth enzymes 0.81%, 72 hours, 55° C.
# Method: This Example describes experiments designed to determine the effects of added copper in saccharification reactions. The saccharification reactions were run in 30g shake flasks (250 mL flasks) using 82g/kg glucan of acid-pretreated corn stover and whole broth enzymes produced by M. thermophila strain CF-416 (produced using standard methods known in the art) at a 0.81% total enzyme load with respect to glucan. […] A pH trim was also performed using 2M NaOH at time intervals of 1, 4, 7, 22, 24 29, 46, 52, 70, 75 and 96 hrs, to maintain the pH at the desired value of pH 5.0 or pH 6.0. Samples were removed at 72 hours and the total amount of glucose in the reaction mixture was determined using standard HPLC methods and equipment as known in the art.
# [3] = tested on: phosphoric acid swollen cellulose (PASC); test: GH61a Variant 1 plus beta-glucosidase with reducing agents or pretreatment filtrate on PASC (FIG. 5B); assay type: biochemical; conditions: 0.3% GH61a Variant 1, 0.08% BGL, 30 μM CuSO4, 48 h, pH 5, 55° C.
# Method: (§1) This Example provides experiments conducted to determine the effect of adding reducing agents (e.g., gallic acid and ascorbic acid) to saccharification reactions. In these experiments, enhancement of GH61 activity was tested using Variant 1 (SEQ ID NO:5) in the presence of reducing agents (specifically, ascorbic acid or gallic acid) and pretreatment filtrate, which contains various reducing agents from lignin degradation. Reactions were performed on cellulosic substrates, AVICEL® PH microcrystalline cellulose and phosphoric acid swollen cellulose (PASC), with purified M. thermophila-produced GH61 Variant 1 and beta-glucosidase at 0.3% and 0.08% respectively, with respect to substrate glucan mass, and 128 mM sodium acetate buffer (pH 5) supplemented with 30 μM CuSO4. Thus, reactions were performed with 0.3% GH61a and 0.08% BGL, where % enzyme loads are with respect to substrate glucan mass (36 g/L AVICEL® cellulose and 5 g/L PASC). Background (negative) controls were beta-glucosidase-only reactions tested in the absence of GH61a. Glucose production after 48 h incubation at pH 5, 55° C. was determined by glucose oxidase/peroxidase-based or HPLC-based glucose assay glucose assay, using methods known in the art. […] Filtrate dilutions are indicated in this Figure, where undiluted filtrate equals 72% of the total reaction volume. […]
# [4] = tested on: AVICEL® PH microcrystalline cellulose; test: GH61a Variant 1 plus beta-glucosidase with reducing agents or pretreatment filtrate on AVICEL (FIG. 5A); assay type: biochemical; conditions: 0.3% GH61a Variant 1, 0.08% BGL, 30 μM CuSO4, 48 h, pH 5, 55° C.
# Method: as §1
# [5] = tested on: pretreated wheat straw (PWS); test: Supplementation of CF-416 whole cellulase broth with single purified enzymes, saccharification of pretreated wheat straw; assay type: biochemical; conditions: 0.4% single enzyme added to 0.5% CF-416 whole cellulase broth base; for Fold Improvement Over Whole Cellulase Broth Tested on PWS: 74 g/L glucan, pH 5.0, 55° C., 50 μM copper
# Method: (§2) In this Example, M. thermophila-produced and purified GH61a, GH61p, GH61f, GH61n, CBH1a, CBH2b, AXE3, FAE, and Xyl3, were used to supplement the activity present in culture broths (i.e., “whole broth cellulase base”) of the M. thermophila strain CF-416 prepared using standard methods known in the art. The broth cellulase base was fixed to 0.5% protein and the single purified enzyme was added at 0.4% (wt added protein/wt glucan) to the saccharification reactions. The whole cellulase broth base and individual enzymes were characterized by standard BCA assays for total protein quantification.
# (§3) The saccharification reactions were carried out at 74 g/L glucan load of pretreated wheat straw (PWS) or pretreated corn stover (PCS) at pH 5.0, 55° C. at 950 rpm in the presence of 50 μM copper in high throughput (HTP) 96 deep well plates. Glucose analysis was carried out by the glucose oxidase assay as described above. In each case, the fold improvement was calculated using the formula Fold Improvement=[Total Glucose Production with addition of 0.4% single enzyme to the whole cellulase broth base]/[glucose production from the 0.5% whole cellulase broth base]. In this Table, the fold improvements were ranked from 0 to 3; fold improvements less than 1.2× are indicated by “0,” fold improvements of >1.2 to <1.5 are indicated by “1,” fold improvements of ≧1.5× to <1.7× improvements are indicated by “2,” and fold improvements ≧1.7 are indicated by “3.”
# [6] = tested on: pretreated corn stover (PCS); test: Supplementation of CF-416 whole cellulase broth with single purified enzymes, saccharification of pretreated corn stover; assay type: biochemical; conditions: 0.4% single enzyme added to 0.5% CF-416 whole cellulase broth base; 74 g/L glucan, pH 5.0, 55° C., 50 μM copper
# Method: as §2, §3
# [7] = tested on: crystalline cellulose; test: Saccharification of crystalline cellulose by cellulase enzymes in culture broth from M. thermophila cells with GH61a added (FIG. 1); assay type: biochemical; conditions: GH61a added to cellulases of M. thermophila culture broth
# Method: FIG. 1 provides results of an experiment using recombinantly produced GH61a protein having the sequence shown in SEQ ID NO:2. The protein was tested for its ability to promote the activity of cellulases present in culture broth of M. thermophila.
# A protein from a strain of M. thermophila having the amino acid sequence provided in SEQ ID NO:2 was previously identified as having GH61 activity. It was designated “GH61a”.
# [8] = tested on: pre-treated wheat straw; test: Biomass assay of GH61a pre-incubated with or supplemented by copper(II) (FIG. 3); assay type: biochemical; conditions: pre-incubated with copper(II) (CuSO4) 0 to 100 μM, 72 h, pH 5, 55° C.
# Method: Purified M. thermophila-produced GH61a or S. cerevisiae supernatant containing M. thermophila-GH61a was pre-incubated with different amounts of copper(II) (CuSO4) at concentrations of 0 to 100 μM at ambient temperature for 30 min. The biomass assay was then performed in a total volume of 300 μL, in the presence of 10 mg of pre-treated wheat straw, using 261 μL of copper-treated GH61 samples, 39 μL of sodium acetate buffer (pH 5), M. thermophila-produced CBH1a, CBH2b and β-glucosidase. The final concentration of sodium acetate was 120 mM and the enzyme loads of CBHs and β-glucosidase (CBH1a and CBH2b in 1:1 ratio) were 0.01% and 0.02% with respect to substrate glucan mass in the biomass substrate, respectively. Background (negative) controls were obtained by using either water or media supernatant from cultures of S. cerevisiae cells without the GH61a gene in the plasmid. Thus, the negative controls represent activities of CBH1a, CBH2b and beta-glucosidase in the absence of GH61a. The reaction was incubated at 55° C. for 72 hours with shaking.
# Some experiments were also performed without pre-incubating GH61 with copper(II), but instead, by directly adding different amounts of copper(II) (CuSO4) to the biomass assay reactions as described herein.
# Biomass assays were performed with (A) S. cerevisiae-produced M. thermophila GH61a Variant 5, and (B) M. thermophila-produced wild-type GH61a. Glucose production after 72 h incubation at pH 5, 55° C. was determined by the glucose assay. The data in this Figure indicate GH61a-only activity, in which the amount of glucose produced in control reaction containing CBH and β-glucosidase was subtracted from the total amount of glucose produced in the reactions with GH61a. In this Figure, N=4; and the error bars represent ±1 standard deviation. Copper concentrations shown are with respect to the total reaction volume.
molecule,measurement,setting,value
O=O [oxygen],"glucose yields, closed flask vs flask opened at 4 hrs and 24 hrs for fresh air",[1],not a limiting factor
"O=S(=O)([O-])[O-].[Cu+2] [copper(II), CuSO4]",total amounts of C5 sugars produced,"[2]; FIG. 4, Panel B",may cause a decrease
same,increase in glucose yields,[2]; saccharification pH 5.0,~3.5%
same,increase in glucose yields,[2]; saccharification pH 6.0,not observed
O=C(O)c1cc(O)c(O)c(O)c1 [gallic acid],GH61 activity in generating soluble sugars from PASC,[3],improved
same,GH61 activity in generating soluble sugars from AVICEL® cellulose,[4],improved
B1,"improvement over whole cellulase broth on PWS, in words",[5],greatest benefit
same,Fold Improvement Over Whole Cellulase Broth Tested on PWS,[5],3 (fold improvements ≧1.7)
same,Fold Improvement Over Whole Cellulase Broth Tested on PCS,[6],2 (fold improvements of ≧1.5× to <1.7×)
same,glucose yield,[7],improvement in glucose yield
same,GH61a-only activity (glucose production) when Cu^++ is included in the reaction,[8]; listed as M. thermophila-produced GH61a,improved
same,GH61a-only activity (glucose production) when Cu^++ is included in the reaction,[8]; listed as wild-type GH61a,increase
B2,GH61a-only activity (glucose production) when Cu^++ is included in the reaction,[8],increase
same,GH61a-only activity (glucose production) when Cu^++ is included in the reaction,[8]; listed as S. cerevisiae supernatant containing M. thermophila-GH61a,improved
B3,Fold Improvement Over Whole Cellulase Broth Tested on PWS,[5],3 (fold improvements ≧1.7)
same,Fold Improvement Over Whole Cellulase Broth Tested on PCS,[6],1 (fold improvements of >1.2 to <1.5)
B4,Fold Improvement Over Whole Cellulase Broth Tested on PWS,[5],1 (fold improvements of >1.2 to <1.5)
same,Fold Improvement Over Whole Cellulase Broth Tested on PCS,[6],0 (fold improvements less than 1.2×)
